In patent publication US20220153847A1 (Chugai, published 2022):

What was measured:
[1] = biological target: DQ2.5/BC hordein peptide on IHW9023 cells (human); assay: cell-based or functional assay
[2] = biological target: DQ2.5/omega 2 gliadin peptide on IHW9023 cells (human); assay: cell-based or functional assay
[3] = biological target: DQ2.5/gamma 1 gliadin peptide on IHW9023 cells (human); assay: cell-based or functional assay
[4] = biological target: DQ2.5/alpha 2 gliadin peptide on IHW9023 cells (human); assay: cell-based or functional assay
[5] = biological target: T1, HLA-DQ2.5/alpha 2 gliadin peptide complex on Ba/F3 cells (human); assay: FACS, Ba/F3 cells; IC17=0%, DQN0139bb=100%;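 further: flow cytometric binding of anti-HLA-DQ antibodies, each applied at 5 µg/mL for 30 min at room temperature, to Ba/F3 cell lines displaying HLA-DQ–peptide complexes; antibody tested at 5 microgram/mL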
T1 construct: whole, on cells; also called Ba/F3-HLA-DQ2.5/alpha 2 gliadin; HLA-DQ2.5/a2 gliadin
Source text: (§1) The binding of anti-HLA-DQ antibodies to Ba/F3-HLA-DQ2.5, Ba/F3-HLA-DQ2.2, Ba/F3-HLA-DQ7.5, Ba/F3-HLA-DQ8, Ba/F3-HLA-DQ5.1, Ba/F3-HLA-DQ6.3, Ba/F3-HLA-DQ7.3, Ba/F3-HLA-DR, Ba/F3-HLA-DP, Ba/F3-HLA-DQ2.5/CLIP, Ba/F3-HLA-DQ2.5/HBV, Ba/F3-HLA-DQ2.5/Salmonella, Ba/F3-HLA-DQ2.5/TPO, Ba/F3-HLA-DQ2.5/M. bovis, Ba/F3-HLA-DQ2.5/alpha 1 gliadin, Ba/F3-HLA-DQ2.5/alpha 2 gliadin, Ba/F3-HLA-DQ2.5/gamma 1 gliadin, Ba/F3-HLA-DQ2.5/gamma 2 gliadin, Ba/F3-HLA-DQ2.5/omega 1 gliadin, Ba/F3-HLA-DQ2.5/omega 2 gliadin, Ba/F3-HLA-DQ2.5/BC hordein, Ba/F3-HLA-DQ2.5/alpha 3 gliadin, Ba/F3-HLA-DQ2.5/alpha 1b gliadin, Ba/F3-HLA-DQ2.5/gamma 4b gliadin, Ba/F3-HLA-DQ2.5/avenin 1, Ba/F3-HLA-DQ2.5/avenin 2, Ba/F3-HLA-DQ2.5/avenin 3, Ba/F3-HLA-DQ2.5/hordein 1, Ba/F3-HLA-DQ2.5/hordein 2, Ba/F3-HLA-DQ2.5/secalin 1, Ba/F3-HLA-DQ2.5/secalin 2, Ba/F3-HLA-DQ2.5/14mer 1, Ba/F3-HLA-DQ2.5/33mer gliadin, Ba/F3-HLA-DQ2.5/26mer gliadin, was tested. 5 microgram/mL of each of the anti-HLA-DQ antibodies was incubated with each cell line for 30 minutes at room temperature and washed with FACS buffer (2% FBS, 2 mM EDTA in PBS).

[6] = biological target: T2, HLA-DQ2.5/hordein 2 peptide complex on Ba/F3 cells (human); assay: FACS, Ba/F3 cells; IC17=0%, DQN0139bb=100%;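 further: flow cytometric binding of anti-HLA-DQ antibodies, each applied at 5 µg/mL for 30 min at room temperature, to Ba/F3 cell lines displaying HLA-DQ–peptide complexes; antibody tested at 5 microgram/mL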
T2 construct: whole, on cells; also called Ba/F3-HLA-DQ2.5/hordein 2
Source text: as §1

[7] = biological target: T3, HLA-DQ2.5/secalin 1 peptide complex on Ba/F3 cells (human); assay: FACS, Ba/F3 cells; IC17=0%, DQN0139bb=100%;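 further: flow cytometric binding of anti-HLA-DQ antibodies, each applied at 5 µg/mL for 30 min at room temperature, to Ba/F3 cell lines displaying HLA-DQ–peptide complexes; antibody tested at 5 microgram/mL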
T3 construct: whole, on cells; also called Ba/F3-HLA-DQ2.5/secalin 1
Source text: as §1

[8] = biological target: T4, HLA-DQ2.5/BC hordein peptide complex on Ba/F3 cells (human); assay: FACS, Ba/F3 cells; IC17=0%, DQN0139bb=100%;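 further: flow cytometric binding of anti-HLA-DQ antibodies, each applied at 5 µg/mL for 30 min at room temperature, to Ba/F3 cell lines displaying HLA-DQ–peptide complexes; antibody tested at 5 microgram/mL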
T4 construct: whole, on cells; also called Ba/F3-HLA-DQ2.5/BC hordein
Source text: as §1

[9] = biological target: T5, HLA-DQ7.5 on Ba/F3 cells (human, UniProt P01909 24-216; P01920 33-230, limits assumed); assay: FACS, Ba/F3 cells; IC17=0%, DQN0139bb=100%
T5 construct: whole, on cells; also called Ba/F3-HLA-DQ7.5
Source text: as §1

[10] = biological target: T6, HLA-DQ2.5/avenin 1 peptide complex on Ba/F3 cells (human); assay: FACS, Ba/F3 cells; IC17=0%, DQN0139bb=100%
T6 construct: whole, on cells; also called Ba/F3-HLA-DQ2.5/avenin 1
Source text: as §1

[11] = biological target: T7, HLA-DQ2.5/gamma 1 gliadin peptide complex on Ba/F3 cells (human); assay: FACS, Ba/F3 cells; IC17=0%, DQN0139bb=100%
T7 construct: whole, on cells; also called Ba/F3-HLA-DQ2.5/gamma 1 gliadin; HLA-DQ2.5/g1 gliadin
Source text: as §1

[12] = biological target: T8, HLA-DQ2.5/33mer gliadin peptide complex on Ba/F3 cells (human); assay: FACS, Ba/F3 cells; IC17=0%, DQN0139bb=100%
T8 construct: whole, on cells; also called Ba/F3-HLA-DQ2.5/33mer gliadin
Source text: as §1

[13] = biological target: T9, HLA-DQ2.5/avenin 2 peptide complex on Ba/F3 cells (human); assay: FACS, Ba/F3 cells; IC17=0%, DQN0139bb=100%
T9 construct: whole, on cells; also called Ba/F3-HLA-DQ2.5/avenin 2
Source text: as §1

[14] = biological target: T10, HLA-DQ2.5/gamma 2 gliadin peptide complex on Ba/F3 cells (human); assay: FACS, Ba/F3 cells; IC17=0%, DQN0139bb=100%
T10 construct: whole, on cells; also called Ba/F3-HLA-DQ2.5/gamma 2 gliadin; HLA-DQ2.5/g2 gliadin
Source text: as §1

[15] = biological target: T11, HLA-DQ2.5/alpha 3 gliadin peptide complex on Ba/F3 cells (human); assay: FACS, Ba/F3 cells; IC17=0%, DQN0139bb=100%
T11 construct: whole, on cells; also called Ba/F3-HLA-DQ2.5/alpha 3 gliadin; HLA-DQ2.5/a3 gliadin
Source text: as §1

[16] = biological target: T12, HLA-DQ2.5/alpha 1b gliadin peptide complex on Ba/F3 cells (human); assay: FACS, Ba/F3 cells; IC17=0%, DQN0139bb=100%
T12 construct: whole, on cells; also called Ba/F3-HLA-DQ2.5/alpha 1b gliadin; HLA-DQ2.5/a1b gliadin
Source text: as §1

[17] = biological target: T13, HLA-DQ2.5/hordein 1 peptide complex on Ba/F3 cells (human); assay: FACS, Ba/F3 cells; IC17=0%, DQN0139bb=100%
T13 construct: whole, on cells; also called Ba/F3-HLA-DQ2.5/hordein 1
Source text: as §1

[18] = biological target: T14, HLA-DQ2.5/CLIP peptide complex on Ba/F3 cells (human); assay: FACS, Ba/F3 cells; IC17=0%, DQN0139bb=100%
T14 construct: whole, on cells; also called Ba/F3-HLA-DQ2.5/CLIP
Source text: as §1

[19] = biological target: T15, HLA-DQ2.5/secalin 2 peptide complex on Ba/F3 cells (human); assay: FACS, Ba/F3 cells; IC17=0%, DQN0139bb=100%
T15 construct: whole, on cells; also called Ba/F3-HLA-DQ2.5/secalin 2
Source text: as §1

[20] = biological target: T16, HLA-DQ2.5/omega 1 gliadin peptide complex on Ba/F3 cells (human); assay: FACS, Ba/F3 cells; IC17=0%, DQN0139bb=100%
T16 construct: whole, on cells; also called Ba/F3-HLA-DQ2.5/omega 1 gliadin; HLA-DQ2.5/w1 gliadin
Source text: as §1

[21] = biological target: T17, HLA-DQ2.5/gamma 4b gliadin peptide complex on Ba/F3 cells (human); assay: FACS, Ba/F3 cells; IC17=0%, DQN0139bb=100%
T17 construct: whole, on cells; also called Ba/F3-HLA-DQ2.5/gamma 4b gliadin; HLA-DQ2.5/g4b gliadin
Source text: as §1

[22] = biological target: T18, HLA-DQ2.2 on Ba/F3 cells (human, UniProt P01909 24-216, limits assumed); assay: FACS, Ba/F3 cells; IC17=0%, DQN0139bb=100%
T18 construct: whole, on cells; also called Ba/F3-HLA-DQ2.2
Source text: as §1
T18 MHC II alpha: not shown
T18 MHC II beta: not shown

[23] = biological target: T19, HLA-DQ8 on Ba/F3 cells (human, UniProt P01909 24-216; P01920 33-230, limits assumed); assay: FACS, Ba/F3 cells; IC17=0%, DQN0139bb=100%
T19 construct: whole, on cells; also called Ba/F3-HLA-DQ8
Source text: as §1
T19 MHC II alpha: not shown
T19 MHC II beta: not shown

[24] = biological target: T20, HLA-DQ2.5/avenin 3 peptide complex on Ba/F3 cells (human); assay: FACS, Ba/F3 cells; IC17=0%, DQN0139bb=100%
T20 construct: whole, on cells; also called Ba/F3-HLA-DQ2.5/avenin 3
Source text: as §1

[25] = biological target: T21, HLA-DQ7.3 on Ba/F3 cells (human, UniProt P01909 24-216; P01920 33-230, limits assumed); assay: FACS, Ba/F3 cells; IC17=0%, DQN0139bb=100%
T21 construct: whole, on cells; also called Ba/F3-HLA-DQ7.3
Source text: as §1
T21 MHC II alpha: not shown
T21 MHC II beta: not shown

[26] = biological target: T22, HLA-DQ2.5/14mer 1 peptide complex on Ba/F3 cells (human); assay: FACS, Ba/F3 cells; IC17=0%, DQN0139bb=100%
T22 construct: whole, on cells; also called Ba/F3-HLA-DQ2.5/14mer 1
Source text: as §1

[27] = biological target: T23, HLA-DQ2.5/omega 2 gliadin peptide complex on Ba/F3 cells (human); assay: FACS, Ba/F3 cells; IC17=0%, DQN0139bb=100%
T23 construct: whole, on cells; also called Ba/F3-HLA-DQ2.5/omega 2 gliadin; HLA-DQ2.5/w2 gliadin
Source text: as §1

[28] = biological target: T24, HLA-DQ2.5/26mer gliadin peptide complex on Ba/F3 cells (human); assay: FACS, Ba/F3 cells; IC17=0%, DQN0139bb=100%
T24 construct: whole, on cells; also called Ba/F3-HLA-DQ2.5/26mer gliadin
Source text: as §1

T5 sequence (P01920 33-230 limits assumed, chain 2 of 4, other chains not shown): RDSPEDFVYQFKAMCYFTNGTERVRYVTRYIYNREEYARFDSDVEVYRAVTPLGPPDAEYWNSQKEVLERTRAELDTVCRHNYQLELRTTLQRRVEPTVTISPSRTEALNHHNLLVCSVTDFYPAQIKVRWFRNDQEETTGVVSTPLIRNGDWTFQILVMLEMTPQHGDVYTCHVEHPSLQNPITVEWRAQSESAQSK
T14 sequence (P04233 96-124, chain 2 of 2, other chains not shown): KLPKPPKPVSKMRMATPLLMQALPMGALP

B1: DQN0429cc (antibody, V domains shown)
VH: QEQLVESGGGLVQPEGSLTLTCTASGFSFSSSYYMCWVRQAPGKGLEWIGCIYTGSGSTDYATWVNGRFTISKTSSTTVTLQMTSLTVADTATYFCARDIGIDYNFWGPGTLVTVSS
VL: AFELTQTPSFVEARVGGTVTIKCQATQSISSYLNWYQQKPGQPPKLLIYYASTLASGVPSRFKGSGSGTEFTLTISGVECADAATYYCHYGISYVSFGGGTKVEIK
notes: also called DQN0492cc
With B1 the “IC50, Jurkat NFAT-Luc T cell activation” value [1] was 0.786 µg/mL, the “IC50, Jurkat NFAT-Luc T cell activation” value [2] was 0.0215 µg/mL and the “IC50, Jurkat NFAT-Luc T cell activation” value [3] was 0.235 µg/mL. For the same binder, the “IC50, Jurkat NFAT-Luc T cell activation” value [4] was 0.00497 µg/mL, the “% MFI” value [5] was 67.7% and the “% MFI” value [6] was 70.6%. For the same binder, the “% MFI” value [7] was 11.8%, the “% MFI” value [8] was 26.4% and the “% MFI” value [9] was 0.2%. The “% MFI” value [10] was 0.8%, the “% MFI” value [11] was 36.6% and the “% MFI” value [12] was 50.2%. The “% MFI” value [13] was 2.9%, the “% MFI” value [14] was 6.2% and the “% MFI” value [15] was 9.4%. The “% MFI” value [16] was 15.7%, the “% MFI” value [17] was 4.5% and the “% MFI” value [18] was 0.2%. For the same binder, the “% MFI” value [19] was 27.7%, the “% MFI” value [20] was 13.4% and the “% MFI” value [21] was 13.6%. For the same binder, the “% MFI” value [22] was 0.7%, the “% MFI” value [23] was 0.2% and the “% MFI” value [24] was 0.1%. For the same binder, the “% MFI” value [25] was 0.2%, the “% MFI” value [26] was 58.5% and the “% MFI” value [27] was 45.5%. For the same binder, the “% MFI” value [28] was 64%.
